In the nanobody polyreactivity screen of Harvey et al. (2022):

Assay: yeast display, Sf9 membrane polyspecificity reagent, FACS + sequencing; frameworks hold sequencing errors
How it was run: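 Galactose-induced (36–48 hours) yeast carrying a synthetic nanobody display library were exposed to 10% biotinylated, detergent-solubilized Sf9 membrane reagent at 4 °C for 1 hour. FACS followed streptavidin microbead enrichment, using low and high (top ~1%) gates for expression (anti-HA) and reagent binding (streptavidin). Colony PCR, MiSeq 2 × 250 sequencing and CDR-length filtering followed. Labels for polyreactivity reflect the gate of origin.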

| Sequence | polyreactivity (PSR sort gate) |
| --- | --- |
| QVQLVESGGGLVQAAGILRLSCAASGSIFVTNAKGWYRQAPGKERELVAAISSGGNTNYADSVKGRFTISRDNAKNTVYLQINSLKPVDTAVYYCAKDPDKVDSVDMDYWGHGTQVTVSS | low polyreactivity |
| QVQLVESGGGLVQAAGRLRLSSAASGIIFYSYAMGWYRQAPGTEREFVAAITNSDGSTYYADSVKGRFTISRDNAKNTVYLQMYSLKPEDTAVYMYYWGQGTQVTVSS | low polyreactivity |
| QVQLVESGGGLVQAAGSLRLSCAASGFIFHYNAMGWYRKATGKERELDASITASASRTYYADSVKGRFTISLDNAKNTVYLQMNSLKPEDTAVYYCAKAIRITITRYRFGYWVQGTQVTVSS | high polyreactivity |
| QVQLVESGGGLVQAAGSLRLSCAASGITFSWYAMGWYRQAPGNERALVASITQSGGSTYYADSVKGRFTISRDNAKNTVYLQMTCLKPEVTAVYYCSKRYLKPVYCYVRNYGSDYWGQGTQVTVSS | low polyreactivity |
| QVQLVESGGGLVQAAGSLRLSCAASGQFFAYYAMGWYRQATGKEREFVAAISWTGGSTYYADSVKGRFTISRDYAKKTVYLLMNSLKPEDTGVYYCAAVSNHLRYVASRYSYYYWGQGTQVTVSS | high polyreactivity |
| QVQLVESGGGLVQAAGSLRLSCAASGRTFKYNAMGWYRQAPGKERELVAAITRSGTTYYADSVKGRFTISRDNAKNTVYLQMNSLKPEDTAVYYCNARIVNYGSYYYWGQGTQVTVSS | high polyreactivity |
| QVQLVESGGGLVQAAGSLRLSCAASGRTLGYYAMGWYRPAPGKERELVAAITRGGSTNYADSVKGRFTISRDNAKNTVYLQMNSLKPEDTAVYYCARRGGYFWLKGDYWGQGTQVTVSS | high polyreactivity |
| QVQLVESGGGLVQAAGSLRLSCAASGSIFSANSMGWYRQAPGKERELVAAISGRGTRTYYADSVKGRFTISRDNAKYTVYLQMNSLKPEDTAVYYCNAARDRTSPEYDYWGQGTQVTVSS | high polyreactivity |
| QVQLVESGGGLVQAAGSLRLSCAASGYTFGYYAMGWYRQAPGKERELVAAINWSGGSTYYADSVKGRFTISRDNEKNSVYLQMYSLKPEDTAVYYCAAQSRSPGYYYWGQGTQVTVSS | high polyreactivity |
| QVQLVESGGGLVQAAGSLRLSCAAYGGIFYWYAMGWYRQAPGKVRELVAVITLSGGSTDYADSVKGRFTISRDNAKNTVSLQMNSLKPEDTAFYYCAAEAYSYYPGTYEDDYWGQGTQVTVSS | low polyreactivity |
| QVQLVESGGGLVQAAGSLRLSSAASGRTFVGYSMGWYRQAPGKERELVAAIHWSVGITYYADSVKGRFTISRDNAKNTVYLQMNSLKPEDTAVYYCAADGYDEPDLLVYEPWREDEYWGQGTQVTVSA | low polyreactivity |
| QVQLVESGGGLVQAAGSLSLICAASGIIFQRSAKGWYRQAPVKERELVATLTISGGSTYYADSVKGRFTISREYAKNTVYLQMNRLKPEDTAVYYCAAALYYPTVRRRFGSDYYWGQGTQVTVSS | low polyreactivity |
| QVQLVESGGGLVQAGASIRLSCAASGSTFYTYDMGRYIQAPGKERELVAVITPRSGTTSYADSVKGRFTISRDYAKNTVYLQMNSLKPEDTAVYYCNVYIPYSYGEYDYWGQGTQVTVSS | high polyreactivity |
| QVQLVESGGGLVQAGASLRLICAASGITFDWYGMGWYRHAPGKERELVATITGSGDSTNYADSVKGRFTISRDNAQNTVYLQMNSLKPEDTAVYYCAAPTSYDQFGYEYWGQGTIVTVSS | low polyreactivity |
| QVQLVESGGGLVQAGASLRLSCAAAGITIGSNVMGWYRQAPRKERELVAAISQCGGRTYYADSVKGRFTISRDYAKNTVYLQMNSMKPEDTAVYYCAKRQRSFYGRPMCDYWGQGTQVTVSS | high polyreactivity |
| QVQLVESGGGLVQAGASLRLSCAASGFILYYYAMGWYRQAPGKERELVAAISARGGSTYYADSVKGRFTISRDNAKNTVYLQMNSLKPVDTAVYYCKKAGGYTGYTRRYEYWGQGTQVTVSS | high polyreactivity |
| QVQLVESGGGLVQAGASLRLSCAASGFTLADNTMGWYRQAPGKERELVAAITSGASTYYADSVKGRFTISRDNAKNTVYLQMKSLKPEDTAVYYCAALYYWRSGYDYWGQGTQVTVSS | low polyreactivity |
| QVQLVESGGGLVQAGASLRLSCAASGGTIAPYAMGWYRQAPGNVRELVAAITSAGTRTYYADSVKGRFTISRENAKNTVYLQMNRLKPEDTAVYYCAAGGGHSMYYWGKGTQVTVSS | high polyreactivity |
| QVQLVESGGGLVQAGASLRLSCAASGHIFDSYAMGWYRQAPGKERELVAAITSGGSTYYADSVKGRFTISRDYAKNTVYLQMNSLKSEDTAVYYCATELGAAGDDSWGQGTQVTVSS | low polyreactivity |
| QVQLVESGGGLVQAGASLRLSCAASGIILHYYAMGGYRQAPGKERELVAAISARGGRTYYADSVKGRFTISRDNAKNTVYLQMNSLKPEDTAVYYCARYLRRSSPSPGYGYWGQGTQVTVSS | high polyreactivity |
| QVQLVESGGGLVQAGASLRLSCAASGITFLDYAMGWYRQAPGTEREMVAVITWNDGSTYYADSVKGRFTISRDNAKNTVYLQMNSLKPEDTAVYYCAAEYADSWSAFDWNYYYWGQGTQVTVSS | high polyreactivity |
| QVQLVESGGGLVQAGASLRLSCAASGLIFVSNAMGWYRQAPGKERELVAAISWSGSRTYYADSVKGRFTISRDNAKINVYLHMTSLKPEDTAVFYCNAVRRGLPVVGAYDYWGQGTQVTVSS | high polyreactivity |

| Sequence | polyreactivity (PSR sort gate) |
| --- | --- |
| QVQLVESGGGLVQAGASLRLSCAASGRIFNGYAMGWYRQAPWKERELVATIRYRGDNTYYADSVKGRFTISRDNAKNTVYLQMNSLKPEDTAVYYCNARVWYTSTSSWAKRYNYWGQGTQVTVSS | high polyreactivity |
| QVQLVESGGGLVQAGASLRLSCAASGRIFSGNAMGWYRQAPGKERELVAAISRGGSTDYADSVKGRFTSSRDNAKNTVYLQMNSLKPEDTAVYYCADRVNGKRRRYDYWGQGTLVTVSS | high polyreactivity |
| QVQLVESGGGLVQAGASLRLSCAASGRTFAWYAMGWYRQAPGKERELVAAISSGGSTYYADSVKGRFTISRDNAKISVYLQMNSLKPEDTAVYDCAAEWHYIYAYDYWGQGTKVTVSS | low polyreactivity |
| QVQLVESGGGLVQAGASLRLSCAASGRTFAYNAMGWSRQAPGKERELVATISNGGTTNYADSVKGRFTISRDNAKNTVYLQMNSLKPEDTAVYYCNRRSYTQVLMDYWGQGTQVTVSS | high polyreactivity |
| QVQLVESGGGLVQAGASLRLSCAASGRTFGRYTMGWYRQAPGKEREFVARINWNGGGTYYADSVKGRFTISRDNAKNTVYLQMNSLKPEDTAVYYCNARKRGARFILGYDYWGQGTQVTVSS | low polyreactivity |
| QVQLVESGGGLVQAGASLRLSCAASGRTFRYYAMGWYRQAPGKERELVAAINTGSSTYYADSVKGRFTISRDNAKYTVYLQMNSLKPEDTAVYYCNVFQGTRYGYWGQGTKVTVSS | low polyreactivity |
| QVQLVESGGGLVQAGASLRLSCAASGRTFSENAMGWYRQAPGKERELVAAISGSGGRTYYADSVKGRFTISRDNEKNTVYLQMKSLKPEVTAVYYCAKVTRYGSTYDYWGQGTQVTVSS | high polyreactivity |
| QVQLVESGGGLVQAGASLRLSCAASGRTLKVYAMGWYRQAPGKERELDAAINNGGSTNYADSVKGRFTISRDNAKNTVYLQMNSLKPEDTAVYYCNAVYYARYRKYTYYYWGQGTQVTVSS | high polyreactivity |
| QVQLVESGGGLVQAGASLRLSCAASGSIFGGYGMGWYRQAPGKERELVAAITSRVGSTYYADSVKGRFTSSRDNAKNTVYLQLNSLNPEDTAVYYCAAKRIYSWGRWTGDYWGQGTQVTVSS | high polyreactivity |
| QVQLVESGGGLVQAGASLRLSCAASGSIFRVYAMGWYRQAPGKERELVATIDTSTDSTYYADSVKGRFTISRDNAKNTVYIQMNSLKPEDTAVYYCNARGTYARYFQYDYSGQGTQVTVSS | low polyreactivity |
| QVQLVESGGGLVQAGASLRLSCAASGSIFSWYTMGWYRQAPGKERELVARITTSGGTTLYADSVKGRFTISRDNAKNTVYFQMNSLKPEDTAVYYCAADRSPYWRGYVRYNYWGQGTQVTVSS | high polyreactivity |
| QVQLVESGGGLVQAGASLRLSCAASGSIIDDYAMGWYRQAPGKERELVAAITYSGGTTYYADSVKGRFTISRDNAKNTVYLQLNSLKREDTAVYYCAAEWRVYYATYGYWGQGTQVTVSS | high polyreactivity |
| QVQLVESGGGLVQAGASLRLSCAASGSTFVIYTMGWYRQAPGKERDLVAAISWSGGITRYADSVKGRFTISRDNGKNTVYLQMNSLKPEDTAVYYCNASQWPSRFDYWGQGPQVTVSS | low polyreactivity |
| QVQLVESGGGLVQAGASLRLSCAASGSTLSYAMGWYRQAPGKERELVAAISRSGGSTYYADSVKGRFTISRDNAKNTVYLLMNSLKPEDTAVYYCAADPYPSYANGGYYWGQGTQVTVSS | low polyreactivity |
| QVQLVESGGGLVQAGASLRLSCAASVSTFGVNAMGCYRQAPGKERELVAAISSSGSSTYADSVKGRFTISRDNAKNTVYLQMNSLKPEDTAVYYCNITTLLSVVYDYWGQGTQVNVSS | low polyreactivity |
| QVQLVESGGGLVQAGASLRLSCAAYGNINAYYAMGWYRQAPGKERELVAAITDSGGNTFYADSVKGRFTISRDNAKNTVYLQMNSLTPADSAVYYCADDPDGWGFVYPRYDYWGQCTQVTVSS | low polyreactivity |
| QVQLVESGGGLVQAGASLRLSCAGSGIIFTRYAMGWYRQAPGKERELVAAITRNGVSTYYADSVKGRFTISRDNAKNTVYLQMNSLKPEDTAVYYCNTYVLRRYAYGYWGQGTQVTVSS | high polyreactivity |
| QVQLVESGGGLVQAGASLRLSCASSGSIFPGYDMGWYRQAPGKEREMVAAITTGGSTYYADSVKGRFTISRDNAKNTVYLQMNSLKPEDTAVYYCAAVYTGSGKRYYKGYYWGQGSQVTVSS | low polyreactivity |
| QVQLVESGGGLVQAGASRRLSCAASVFTFGDNAMGWSRQATGKDRELVDAITSSGSTNYADSVKGRFTMSRDIAKNTVYLQLNSLTQEDTAVNYCNAEDSVDAPVYKDLGSEYDSWGQGTQVTVSS | low polyreactivity |
| QVQLVESGGGLVQAGCILRLSCAASGRIYVKAMGCYRQPPGIERELVAAIRSGGSTNYADSVKGLFTISRDNAKNTVYLQMNSLKPEDTAVYYCDAPYRLSKYDYWGQGTQVTESS | high polyreactivity |
| QVQLVESGGGLVQAGCSLRITCAASGYTFYDYAMGWYRQAPRKERELVAAISSSGGSTYYAHSVKGRFTISRDTAKNTVYLQMISLKPEDTAVYYCDVRARRWRYNYWGQGTQVTVSS | high polyreactivity |
